# From IntAct's records for PubMed 29039417
# B1: Protein PTHB1 (Homo sapiens), Q3SYG4 (parent)
# chain: MSLFKARDWWSTILGDKEEFDQGCLCLANVDNSGNGQDKIIVGSFMGYLRIFSPHPAKTGDGAQAEDLLLEVDLRDPVLQVEVGKFVSGTEMLHLAVLHSRKLCVYSVSGTLGNVEHGNQCQMKLMYEHNLQRTACNMTYGSFGGVKGRDLICIQSMDGMLMVFEQESYAFGRFLPGFLLPGPLAYSSRTDSFLTVSSCQQVESYKYQVLAFATDADKRQETEQQKLGSGKRLVVDWTLNIGEQALDICIVSFNQSASSVFVLGERNFFCLKDNGQIRFMKKLDWSPSCFLPYCSVSEGTINTLIGNHNNMLHIYQDVTLKWATQLPHIPVAVRVGCLHDLKGVIVTLSDDGHLQCSYLGTDPSLFQAPNVQSRELNYDELDVEMKELQKIIKDVNKSQGVWPMTEREDDLNVSVVVSPNFDSVSQATDVEVGTDLVPSVTVKVTLQNRVILQKAKLSVYVQPPLELTCDQFTFEFMTPDLTRTVSFSVYLKRSYTPSELEGNAVVSYSRPTDRNPDGIPRVIQCKFRLPLKLICLPGQPSKTASHKITIDTNKSPVSLLSLFPGFASQSDDDQVNVMGFHFLGGARITVLASKTSQRYRIQSEQFEDLWLITNELILRLQEYFEKQGVKDFACSFSGSIPLQEYFELIDHHFELRINGEKLEELLSERAVQFRAIQRRLLARFKDKTPAPLQHLDTLLDGTYKQVIALADAVEENQGNLFQSFTRLKSATHLVILLIALWQKLSADQVAILEAAFLPLQEDTQELGWEETVDAAISHLLKTCLSKSSKEQALNLNSQLNIPKDTSQLKKHITLLCDRLSKGGRLCLSTDAAAPQTMVMPGGCTTIPESDLEERSVEQDSTELFTNHRHLTAETPRPEVSPLQGVSE
# partner: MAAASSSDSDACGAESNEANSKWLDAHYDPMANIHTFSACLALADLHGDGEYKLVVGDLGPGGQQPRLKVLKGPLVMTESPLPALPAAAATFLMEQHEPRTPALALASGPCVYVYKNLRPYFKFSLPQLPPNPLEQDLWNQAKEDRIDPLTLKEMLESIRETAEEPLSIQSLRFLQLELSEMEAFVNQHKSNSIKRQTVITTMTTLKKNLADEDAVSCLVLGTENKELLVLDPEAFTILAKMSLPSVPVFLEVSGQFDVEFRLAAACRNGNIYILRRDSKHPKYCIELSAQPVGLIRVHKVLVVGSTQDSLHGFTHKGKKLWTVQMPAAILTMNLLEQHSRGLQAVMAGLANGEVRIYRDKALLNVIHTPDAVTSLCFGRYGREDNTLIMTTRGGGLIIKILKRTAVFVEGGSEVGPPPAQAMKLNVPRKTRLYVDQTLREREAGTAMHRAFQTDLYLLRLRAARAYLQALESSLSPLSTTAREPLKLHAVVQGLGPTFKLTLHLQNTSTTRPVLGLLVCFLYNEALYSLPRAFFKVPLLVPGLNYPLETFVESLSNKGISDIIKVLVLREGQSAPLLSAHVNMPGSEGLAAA
# Variants of: B1
# Settings: with bbs1_human BBS1, Q8NFJ9
row,effect of a mutation on the interaction,Variant
1,with no effect,S603K
2,with no effect,S603E
3,with no effect,P564A
4,with no effect,T782A
5,with no effect,N503K
6,with no effect,G628K
7,with no effect,R876A
8,with no effect,I612A
9,with no effect,E654K
10,with no effect,P419K
11,with no effect,G884A
12,with no effect,S635A
13,with no effect,S635E
14,with no effect,D817A
15,with no effect,W610A
16,with no effect,Y460K
17,with no effect,T844K
18,with no effect,H869A
19,with no effect,H869E
20,with no effect,Q717K
21,with no effect,E644K
22,with no effect,D429A
23,with no effect,Q627K

row,effect of a mutation on the interaction,Variant
1,with no effect,T434A
2,with no effect,V505A
3,disrupting interaction strength,H651T
4,with no effect,T428K
5,with no effect,L452E
6,disrupting interaction strength,M837V
7,with no effect,D631K
8,with no effect,L692E
9,with no effect,Q722K
10,with no effect,A832K
11,with no effect,H811A
12,with no effect,H811E
13,with no effect,L436E
14,with no effect,E647K
15,with no effect,T871E
16,with no effect,K547A
17,with no effect,K547E
18,with no effect,S545A
19,with no effect,K443A
20,with no effect,K443E
21,with no effect,V590E
22,with no effect,Q462K
23,with no effect,N716E

row,effect of a mutation on the interaction,Variant
1,with no effect,P877K
2,with no effect,P877A
3,with no effect,V444A
4,disrupting interaction strength,D747N
5,disrupting interaction strength,I738K
6,disrupting interaction strength,I738A
7,with no effect,A872E
8,with no effect,G701K
9,disrupting interaction strength,G701E
10,with no effect,F724K
11,with no effect,S555E
12,with no effect,W741E
13,with no effect,W741K
14,with no effect,Y490E
15,with no effect,G659E
16,with no effect,R726A
17,with no effect,R726K
18,disrupting interaction strength,L616P
19,with no effect,N658K
20,with no effect,S541E
21,with no effect,R449E
22,with no effect,R449K
23,with no effect,M839K

row,effect of a mutation on the interaction,Variant
1,with no effect,T543E
2,with no effect,T543K
3,with no effect,R683E
4,with no effect,D573A
5,with no effect,K821A
6,with no effect,I451K
7,disrupting interaction strength,S570L
8,with no effect,S570E
9,with no effect,Q621E
10,with no effect,N448K
11,with no effect,I676K
12,with no effect,C843A
13,with no effect,P516E
14,with no effect,P516A
15,with no effect,G518A
16,with no effect,F684K
17,with no effect,F673K
18,with no effect,L411K
19,with no effect,A746E
20,with no effect,S667A
21,with no effect,K526A
22,with no effect,T702E
23,with no effect,L720A

row,effect of a mutation on the interaction,Variant
1,with no effect,K554E
2,with no effect,D470E
3,with no effect,L611E
4,with no effect,T405E
5,with no effect,K743E
6,with no effect,E604A
7,with no effect,T468A
8,with no effect,T861K
9,with no effect,T861A
10,with no effect,D409A
11,with no effect,V557K
12,with no effect,A690E
13,with no effect,L609K
14,with no effect,P881A
15,with no effect,T595K
16,with no effect,L795E
17,with no effect,E769K
18,with no effect,S785A
19,with no effect,M578K
20,with no effect,M578E
21,with no effect,G767E
22,with no effect,L562K
23,disrupting interaction strength,L562F

row,effect of a mutation on the interaction,Variant
1,with no effect,T441A
2,with no effect,E715K
3,with no effect,S860A
4,with no effect,S561K
5,with no effect,S561E
6,with no effect,C634A
7,disrupting interaction strength,C634S
8,with no effect,A775K
9,disrupting interaction strength,A775T
10,with no effect,E466A
11,with no effect,N719E
12,with no effect,S886E
13,with no effect,Q672E
14,with no effect,P840A
15,with no effect,L560A
16,with no effect,R678E
17,with no effect,R678A
18,with no effect,R678K
19,with no effect,T725K
20,with no effect,T725E
21,with no effect,G823E
22,with no effect,P520A
23,with no effect,G585K

row,effect of a mutation on the interaction,Variant
1,with no effect,C816E
2,with no effect,L814E
3,with no effect,S498A
4,with no effect,F476K
5,with no effect,F476A
6,with no effect,N420A
7,with no effect,F580E
8,with no effect,V506K
9,with no effect,P497A
10,with no effect,G538A
11,with no effect,P802K
12,with no effect,H581K
13,with no effect,K661A
14,with no effect,P511E
15,with no effect,Q883A
16,with no effect,R824A
17,with no effect,L740A
18,with no effect,R854E
19,with no effect,T731E
20,with no effect,R656A
21,with no effect,A833E
22,with no effect,E770A
23,with no effect,Q574E

row,effect of a mutation on the interaction,Variant
1,with no effect,H546K
2,with no effect,I812E
3,with no effect,I523E
4,with no effect,V856E
5,with no effect,R407K
6,with no effect,R407E
7,with no effect,Q539A
8,with no effect,H652K
9,with no effect,S486A
10,with no effect,T613E
11,with no effect,D572E
12,with no effect,L882E
13,with no effect,Y623A
14,disrupting interaction strength,Q677Y
15,with no effect,I617A
16,with no effect,F527A
17,with no effect,S509E
18,with no effect,Y495E
19,with no effect,Y495A
20,with no effect,P875A
21,with no effect,T484K
